Results published in the supplement of paper PMC10065799, “High-throughput profiling of sequence recognition by tyrosine kinases and SH2 domains using bacterial peptide display” (eLife, 2023).

Key:
AncSZ = assay: phosphorylation enrichment, bacterial display (enrichment ratio); higher = better substrate or ligand; peptides without Tyr show the background
EPHB1 = EPHB1 (UniProt P54762); assay: as above
EPHB2 = EPHB2 (UniProt P29323); assay: as above
FGFR1 = FGFR1 (UniProt P11362); assay: as above
Chain of FGFR1 (P11362 whole entry, looked up): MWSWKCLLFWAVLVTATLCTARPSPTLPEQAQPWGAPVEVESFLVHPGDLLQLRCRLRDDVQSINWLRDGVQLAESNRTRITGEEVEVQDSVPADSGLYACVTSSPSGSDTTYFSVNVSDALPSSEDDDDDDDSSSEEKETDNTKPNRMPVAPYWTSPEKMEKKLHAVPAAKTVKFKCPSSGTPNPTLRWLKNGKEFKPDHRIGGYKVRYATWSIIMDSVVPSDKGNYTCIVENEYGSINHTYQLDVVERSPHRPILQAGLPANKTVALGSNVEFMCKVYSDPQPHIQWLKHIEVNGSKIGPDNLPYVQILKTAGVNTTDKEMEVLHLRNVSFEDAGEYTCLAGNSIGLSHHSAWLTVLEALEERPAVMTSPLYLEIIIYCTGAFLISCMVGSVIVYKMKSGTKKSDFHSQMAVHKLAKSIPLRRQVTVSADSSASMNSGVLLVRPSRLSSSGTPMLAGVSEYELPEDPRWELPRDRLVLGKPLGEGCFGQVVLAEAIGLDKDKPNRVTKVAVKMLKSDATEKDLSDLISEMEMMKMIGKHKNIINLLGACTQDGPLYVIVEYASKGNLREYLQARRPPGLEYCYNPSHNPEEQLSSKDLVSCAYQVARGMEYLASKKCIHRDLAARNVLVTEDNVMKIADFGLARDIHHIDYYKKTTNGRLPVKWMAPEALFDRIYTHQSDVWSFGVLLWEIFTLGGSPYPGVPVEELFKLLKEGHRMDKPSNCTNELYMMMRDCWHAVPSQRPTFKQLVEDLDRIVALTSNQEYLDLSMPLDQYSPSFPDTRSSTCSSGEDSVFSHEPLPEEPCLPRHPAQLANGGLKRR

FGFR3 = FGFR3 (UniProt P22607); assay: as above
Chain of FGFR3 (P22607 whole entry, looked up): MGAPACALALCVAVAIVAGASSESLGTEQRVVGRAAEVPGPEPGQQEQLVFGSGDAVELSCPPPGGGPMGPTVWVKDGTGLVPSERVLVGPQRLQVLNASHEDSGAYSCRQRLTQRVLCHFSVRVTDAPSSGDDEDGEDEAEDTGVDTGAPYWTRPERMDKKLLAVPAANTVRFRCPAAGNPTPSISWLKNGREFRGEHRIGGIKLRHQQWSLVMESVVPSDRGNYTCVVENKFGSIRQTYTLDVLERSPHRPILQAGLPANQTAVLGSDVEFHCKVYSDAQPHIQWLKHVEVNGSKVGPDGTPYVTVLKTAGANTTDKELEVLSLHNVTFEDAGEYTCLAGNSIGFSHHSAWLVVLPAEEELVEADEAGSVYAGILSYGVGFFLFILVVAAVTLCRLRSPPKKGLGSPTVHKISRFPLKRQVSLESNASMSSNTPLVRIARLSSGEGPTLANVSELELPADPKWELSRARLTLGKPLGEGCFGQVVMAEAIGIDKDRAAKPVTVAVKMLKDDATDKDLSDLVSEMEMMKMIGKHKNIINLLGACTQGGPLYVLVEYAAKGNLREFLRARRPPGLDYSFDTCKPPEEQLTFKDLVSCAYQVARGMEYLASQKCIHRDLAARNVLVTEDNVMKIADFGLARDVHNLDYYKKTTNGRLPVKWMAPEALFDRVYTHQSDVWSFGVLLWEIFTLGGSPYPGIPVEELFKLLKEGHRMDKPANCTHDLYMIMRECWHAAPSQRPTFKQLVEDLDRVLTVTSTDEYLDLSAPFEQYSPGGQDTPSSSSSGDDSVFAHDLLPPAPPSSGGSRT

Fer (mouse) = assay: as above
Fes = Fes (UniProt P07332); assay: as above
Chain of Fes (P07332 whole entry, looked up): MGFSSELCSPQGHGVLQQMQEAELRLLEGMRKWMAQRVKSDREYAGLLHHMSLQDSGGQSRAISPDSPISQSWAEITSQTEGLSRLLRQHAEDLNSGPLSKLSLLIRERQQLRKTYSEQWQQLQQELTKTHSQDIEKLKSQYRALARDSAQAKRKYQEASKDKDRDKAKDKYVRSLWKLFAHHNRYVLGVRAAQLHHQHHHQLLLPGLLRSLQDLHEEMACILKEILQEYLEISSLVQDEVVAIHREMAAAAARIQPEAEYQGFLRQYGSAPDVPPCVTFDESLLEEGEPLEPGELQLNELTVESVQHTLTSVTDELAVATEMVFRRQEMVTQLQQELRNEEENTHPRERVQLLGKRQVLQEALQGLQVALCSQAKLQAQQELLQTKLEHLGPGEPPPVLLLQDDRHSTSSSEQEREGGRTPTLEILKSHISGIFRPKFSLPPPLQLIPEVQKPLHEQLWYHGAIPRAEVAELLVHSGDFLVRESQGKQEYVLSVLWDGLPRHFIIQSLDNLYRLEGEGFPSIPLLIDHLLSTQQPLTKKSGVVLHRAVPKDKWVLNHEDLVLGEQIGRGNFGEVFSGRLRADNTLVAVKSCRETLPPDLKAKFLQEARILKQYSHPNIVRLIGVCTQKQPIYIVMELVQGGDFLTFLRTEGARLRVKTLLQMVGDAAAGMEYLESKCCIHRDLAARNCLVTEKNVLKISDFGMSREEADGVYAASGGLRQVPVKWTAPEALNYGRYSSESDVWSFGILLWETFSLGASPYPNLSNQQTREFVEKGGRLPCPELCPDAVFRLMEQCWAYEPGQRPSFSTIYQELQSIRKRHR

Fyn = Fyn (UniProt P06241); assay: as above
Chain of Fyn (P06241 whole entry, looked up): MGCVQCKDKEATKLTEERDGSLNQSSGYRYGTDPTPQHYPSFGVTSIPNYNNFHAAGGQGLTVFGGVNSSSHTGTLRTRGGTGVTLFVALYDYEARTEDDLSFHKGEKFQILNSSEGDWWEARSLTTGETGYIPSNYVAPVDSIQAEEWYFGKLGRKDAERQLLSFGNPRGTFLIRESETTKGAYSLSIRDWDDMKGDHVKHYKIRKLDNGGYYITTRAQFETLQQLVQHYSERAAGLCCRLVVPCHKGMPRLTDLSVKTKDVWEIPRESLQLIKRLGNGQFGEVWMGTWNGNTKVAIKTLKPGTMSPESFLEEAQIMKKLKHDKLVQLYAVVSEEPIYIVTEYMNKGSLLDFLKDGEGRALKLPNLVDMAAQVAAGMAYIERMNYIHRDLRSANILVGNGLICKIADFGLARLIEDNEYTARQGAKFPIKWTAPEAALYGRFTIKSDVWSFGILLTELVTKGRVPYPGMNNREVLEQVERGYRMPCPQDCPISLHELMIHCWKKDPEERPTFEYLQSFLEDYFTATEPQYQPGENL

Hck = Hck (UniProt P08631); assay: as above
Chain of Hck (P08631 whole entry, looked up): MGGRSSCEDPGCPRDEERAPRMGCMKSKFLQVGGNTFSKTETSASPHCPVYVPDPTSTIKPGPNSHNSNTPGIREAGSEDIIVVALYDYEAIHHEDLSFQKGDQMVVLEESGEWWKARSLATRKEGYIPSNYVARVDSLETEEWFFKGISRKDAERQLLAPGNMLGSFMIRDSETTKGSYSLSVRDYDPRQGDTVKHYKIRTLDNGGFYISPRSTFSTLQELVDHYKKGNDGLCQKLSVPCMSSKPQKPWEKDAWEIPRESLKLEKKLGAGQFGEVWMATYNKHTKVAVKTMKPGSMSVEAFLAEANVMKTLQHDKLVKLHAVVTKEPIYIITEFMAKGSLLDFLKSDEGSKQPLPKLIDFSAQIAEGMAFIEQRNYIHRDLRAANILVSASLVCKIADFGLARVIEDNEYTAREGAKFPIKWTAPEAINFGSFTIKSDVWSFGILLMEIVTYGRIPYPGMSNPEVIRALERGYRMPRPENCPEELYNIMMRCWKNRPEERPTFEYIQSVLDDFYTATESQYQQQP

Jak2 = Jak2 (UniProt O60674); assay: as above
MERTK = MERTK (UniProt Q12866); assay: as above
c-Abl (mouse) = assay: as above
c-Src = assay: as above
Grb2 SH2 = Grb2 SH2 (UniProt P62993); assay: SH2 binding enrichment of the phosphorylated peptide, bacterial display (enrichment ratio); higher = better substrate or ligand; peptides without Tyr show the background
Chain of Grb2 SH2 (P62993 whole entry, looked up): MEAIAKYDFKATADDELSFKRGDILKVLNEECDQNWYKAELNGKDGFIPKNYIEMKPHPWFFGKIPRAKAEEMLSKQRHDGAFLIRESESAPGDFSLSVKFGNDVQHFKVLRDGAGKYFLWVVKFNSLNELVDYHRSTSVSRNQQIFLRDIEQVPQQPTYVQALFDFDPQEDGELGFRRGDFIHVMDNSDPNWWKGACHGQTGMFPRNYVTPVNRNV

SHP2-C SH2 = assay: as above
c-Src SH2 = assay: as above
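Throughout, for SH2 binding enrichment of the phosphorylated peptide, bacterial display: peptide library displayed on the E. coli surface as eCPX fusions, selected cells deep-sequenced, score is each peptide's frequency after selection divided by its frequency in the input.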
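Throughout, for phosphorylation enrichment, bacterial display: 11-residue human phosphosite peptides and single-mutation variants displayed on the E. coli surface, counted by deep sequencing, each peptide's frequency after selection divided by its frequency in the unselected input library; frequency after pTyr selection over input frequency; kinase dosed for 20-30% of maximal phosphorylation in three min.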

Chain of EPHB1 (P54762 whole entry, looked up): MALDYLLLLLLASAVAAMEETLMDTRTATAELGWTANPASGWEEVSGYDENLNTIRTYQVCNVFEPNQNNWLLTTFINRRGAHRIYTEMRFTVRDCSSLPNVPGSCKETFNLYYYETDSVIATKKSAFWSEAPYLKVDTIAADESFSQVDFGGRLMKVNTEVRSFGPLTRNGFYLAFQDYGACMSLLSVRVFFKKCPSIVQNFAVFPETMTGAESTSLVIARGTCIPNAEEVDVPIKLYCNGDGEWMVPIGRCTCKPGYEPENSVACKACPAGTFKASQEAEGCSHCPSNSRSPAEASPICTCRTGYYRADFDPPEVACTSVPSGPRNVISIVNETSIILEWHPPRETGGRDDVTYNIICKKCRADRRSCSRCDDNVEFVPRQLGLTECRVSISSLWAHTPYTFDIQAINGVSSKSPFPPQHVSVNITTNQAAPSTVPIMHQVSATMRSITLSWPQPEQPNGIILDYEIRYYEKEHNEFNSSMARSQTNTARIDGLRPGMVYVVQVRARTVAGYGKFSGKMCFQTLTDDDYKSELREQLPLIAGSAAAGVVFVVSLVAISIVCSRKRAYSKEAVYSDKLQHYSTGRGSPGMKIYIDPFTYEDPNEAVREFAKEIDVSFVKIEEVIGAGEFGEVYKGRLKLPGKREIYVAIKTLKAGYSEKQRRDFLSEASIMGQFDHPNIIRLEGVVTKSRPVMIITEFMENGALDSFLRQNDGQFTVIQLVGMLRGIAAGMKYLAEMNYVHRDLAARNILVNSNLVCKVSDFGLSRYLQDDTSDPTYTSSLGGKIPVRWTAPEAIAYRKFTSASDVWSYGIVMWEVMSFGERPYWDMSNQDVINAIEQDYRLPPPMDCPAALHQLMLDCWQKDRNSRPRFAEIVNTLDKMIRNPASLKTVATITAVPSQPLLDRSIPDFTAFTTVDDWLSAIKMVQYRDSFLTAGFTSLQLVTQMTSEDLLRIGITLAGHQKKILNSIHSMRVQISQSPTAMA

Row | Sequence | phosphorylation enrichment (AncSZ) | phosphorylation enrichment (EPHB1) | phosphorylation enrichment (EPHB2) | phosphorylation enrichment (FGFR1) | phosphorylation enrichment (FGFR3) | phosphorylation enrichment (Fer (mouse)) | phosphorylation enrichment (Fes) | phosphorylation enrichment (Fyn) | phosphorylation enrichment (Hck) | phosphorylation enrichment (Jak2) | phosphorylation enrichment (MERTK) | phosphorylation enrichment (c-Abl (mouse)) | phosphorylation enrichment (c-Src) | SH2 binding enrichment (Grb2 SH2) | SH2 binding enrichment (SHP2-C SH2) | SH2 binding enrichment (c-Src SH2)
1 | ARAFIYAIIPA [ACKtide_2014] | 1.4 | 5.28 | 2.22 | 1.07 | 1.1 | 0.81 | 1.46 | 2.65 | 4.01 | 1.86 | 6.87 | 2.27 | 3.54 | 1.03 | 0.777 | 0.764
2 | ARGMEYLASKK [FGFR1_Y613] | 0.61 | 0.356 | 0.367 | 0.285 | 0.409 | 0.324 | 0.566 | 0.364 | 0.367 | 0.662 | 0.354 | 0.506 | 0.403 | 0.529 | 0.513 | 0.456
3 | ARIVDYNIIGW [MYH7_Y588_G584R] | 0.808 | 0.542 | 0.662 | 0.81 | 0.839 | 0.406 | 0.846 | 0.545 | 0.56 | 0.671 | 0.454 | 0.561 | 0.445 | 0.735 | 0.607 | 0.874
4 | ASNFNYFFHRE [KCNA1_Y413_V408A_YF] | 1.03 | 0.511 | 0.556 | 0.506 | 0.748 | 0.415 | 1.01 | 0.372 | 0.654 | 0.805 | 0.453 | 0.571 | 0.43 | 1.31 | 1.03 | 0.6
5 | ASYGPNTRVQS [FOXL2_Y258_Y258N] | 0.537 | 0.474 | 0.407 | 0.444 | 0.407 | 0.448 | 0.596 | 0.41 | 0.454 | 0.515 | 0.435 | 0.559 | 0.478 | 0.872 | 0.582 | 0.543
6 | ATARPYRPYII [LRP5_Y1528] | 0.675 | 0.457 | 0.362 | 0.396 | 0.545 | 0.482 | 0.793 | 0.55 | 0.413 | 0.465 | 0.468 | 0.688 | 0.581 | 1.04 | 0.86 | 0.784
7 | AVDMTYDGHPV [FLNB_Y1020_V1018M] | 1.19 | 1.67 | 4.79 | 0.576 | 0.737 | 0.89 | 0.926 | 3.3 | 3.87 | 0.765 | 0.593 | 0.768 | 3.61 | 0.877 | 0.662 | 0.461
8 | AVLSLYASGRN [ACTA1_Y145_T150N] | 0.858 | 0.519 | 0.557 | 0.436 | 0.581 | 0.549 | 0.989 | 0.44 | 0.688 | 0.958 | 0.388 | 0.737 | 0.419 | 0.867 | 0.976 | 0.669
9 | AVLVQYYMEHH [PTPN11_Y80_E76V] | 0.987 | 2.43 | 1.32 | 0.753 | 0.868 | 0.516 | 1.21 | 0.673 | 0.875 | 0.821 | 0.89 | 0.708 | 0.596 | 1.52 | 1.87 | 1.18
10 | AVVEPYNSILT [TUBA1A_Y185] | 0.686 | 0.489 | 0.365 | 0.438 | 0.496 | 0.377 | 0.83 | 0.434 | 0.43 | 0.802 | 0.415 | 0.534 | 0.453 | 0.866 | 0.899 | 3.31
11 | AYRHGYFDEEM [PLEC_Y2971_R2969H] | 1.03 | 0.664 | 0.631 | 0.676 | 0.657 | 0.526 | 1.05 | 0.593 | 0.643 | 0.827 | 0.5 | 0.742 | 0.461 | 0.893 | 0.771 | 0.634
12 | CASQLCPRHKH [DCTN4_Y263_Y263C] | 0.477 | 0.305 | 0.393 | 0.33 | 0.332 | 0.367 | 0.533 | 0.366 | 0.326 | 0.495 | 0.358 | 0.451 | 0.312 | 1.19 | 1.2 | 1.43
13 | CCNHPYRINGA [CHD7_Y1256_L1257R] | 0.505 | 0.38 | 0.46 | 0.575 | 0.564 | 0.454 | 0.621 | 0.542 | 0.464 | 0.396 | 0.404 | 0.434 | 0.64 | 0.861 | 0.537 | 0.51
14 | CEHRGSLYLAI [TEK_Y897_Y897S] | 1.13 | 0.714 | 0.585 | 0.609 | 0.847 | 0.573 | 1.24 | 0.552 | 0.606 | 1.16 | 1.24 | 0.933 | 0.891 | 0.795 | 0.678 | 0.519
15 | CEQELYSQLVY [WAS_Y102_W97C] | 1.9 | 4.86 | 5.74 | 3.8 | 3.67 | 11.2 | 1.81 | 6.54 | 6.75 | 1.22 | 5.03 | 1.14 | 5.28 | 0.731 | 0.556 | 0.518
16 | CERLPYDASKW [FLT1_Y815] | 0.951 | 0.589 | 0.46 | 0.523 | 0.688 | 0.49 | 1.13 | 0.45 | 0.525 | 1.01 | 0.409 | 0.824 | 0.464 | 0.746 | 0.72 | 0.632
17 | CFVFFYSFLLK [PTEN_Y178_R173C_YF] | 0.997 | 0.473 | 0.72 | 0.423 | 0.865 | 0.487 | 1.03 | 0.459 | 0.578 | 0.987 | 0.557 | 0.86 | 0.519 | 1.78 | 1.8 | 0.789
18 | CGASGYSATST [CERT1_Y143_S138C] | 1.02 | 0.55 | 0.706 | 0.457 | 0.872 | 0.675 | 1.08 | 0.476 | 0.51 | 1.06 | 0.523 | 0.746 | 0.489 | 0.741 | 0.756 | 0.556
19 | CGLPRYRWLTH [TSPAN12_Y143_Y138C] | 0.848 | 0.47 | 0.645 | 0.435 | 0.476 | 0.438 | 0.929 | 0.707 | 0.525 | 0.669 | 0.461 | 0.453 | 0.357 | 0.838 | 0.536 | 0.442
20 | CKRQFYLYKGK [RSPO4_Y112] | 0.836 | 0.333 | 0.49 | 0.427 | 0.704 | 0.431 | 0.926 | 0.432 | 0.43 | 0.746 | 0.331 | 0.438 | 0.312 | 1.84 | 1.15 | 0.856
21 | CPFNLYAEQFS [HGD_Y40_L44F_YF] | 1.45 | 2.19 | 1.29 | 0.747 | 0.847 | 0.923 | 1.54 | 0.834 | 1.08 | 1.34 | 1.6 | 1.16 | 1.49 | 0.942 | 0.519 | 0.66
22 | CPPELYALMSD [ZAP70_Y569] | 1.57 | 3.39 | 1.13 | 0.905 | 1 | 1.19 | 1.31 | 0.612 | 1.08 | 0.892 | 3.54 | 0.681 | 0.828 | 2.08 | 0.784 | 1.06
23 | CRPPFYHRNCM [HGD_Y334_F329C_YF] | 0.913 | 0.474 | 0.555 | 0.435 | 0.635 | 0.375 | 0.776 | 0.492 | 0.48 | 0.606 | 0.452 | 0.58 | 0.901 | 1.27 | 1.4 | 1.36
24 | CTLLPYYSARV [DGKE_Y269] | 1.03 | 0.601 | 0.655 | 0.485 | 0.699 | 0.497 | 1.04 | 0.464 | 0.604 | 0.937 | 0.508 | 0.735 | 0.579 | 0.74 | 0.889 | 1.81
25 | CTTIHCNYMCN [TP53_Y234_Y234C] | 1.06 | 0.784 | 0.612 | 0.41 | 0.731 | 0.599 | 1.15 | 0.403 | 0.503 | 0.921 | 0.395 | 0.775 | 1.14 | 0.729 | 0.711 | 0.632
26 | CTTIHYHYMCN [TP53_Y234_N235H] | 0.964 | 0.551 | 0.425 | 0.568 | 0.667 | 0.523 | 0.963 | 0.561 | 0.551 | 0.668 | 0.446 | 0.661 | 0.414 | 1.33 | 5.53 | 2.73
27 | CTTIHYNFMGN [TP53_Y234_C238G_YF] | 0.926 | 0.565 | 0.487 | 0.542 | 0.523 | 0.472 | 0.876 | 0.464 | 0.478 | 0.73 | 0.532 | 0.699 | 0.402 | 0.96 | 0.788 | 0.772
28 | CTTIHYNFVCN [TP53_Y234_M237V_YF] | 0.998 | 0.678 | 0.654 | 0.694 | 0.769 | 0.694 | 1.11 | 0.539 | 0.54 | 1.01 | 0.508 | 0.754 | 0.532 | 1.94 | 1.59 | 1.93
29 | CTTIHYNYMFN [TP53_Y234_C238F] | 1.14 | 0.672 | 0.641 | 0.657 | 0.812 | 0.757 | 1.21 | 0.555 | 0.498 | 1 | 0.681 | 0.926 | 0.522 | 0.951 | 1.13 | 1.06
